Reference: PMC4765788, “Role of a chalcone isomerase-like protein in flavonoid biosynthesis in Arabidopsis thaliana” (Journal of Experimental Botany, 2015)

Target: the molecule itself
Assay: native gel or EMSA; purified recombinant protein run on a non-denaturing PAGE gel

B1: recombinant TT5 protein (chalcone isomerase), His-tagged (enzyme, Arabidopsis thaliana, UniProt P41088 1-246, looked up)
chain: MSSSNACASPSPFPAVTKLHVDSVTFVPSVKSPASSNPLFLGGAGVRGLDIQGKFVIFTVIGVYLEGNAVPSLSVKWKGKTTEELTESIPFFREIVTGAFEKFIKVTMKLPLTGQQYSEKVTENCVAIWKQLGLYTDCEAKAVEKFLEIFKEETFPPGSSILFALSPTGSLTVAFSKDDSIPETGIAVIENKLLAEAVLESIIGKNGVSPGTRLSVAERLSQLMMKNKDEKEVSDHSVEEKLAKEN
notes: TT5, chalcone isomerase, Arabidopsis thaliana, At3g55120; ORF cloned into pQE-30; pQE-30 usually adds an N-terminal His6 tag (surmised); also called CHI
- stoichiometry N: 4
